Results taken from PMC5397045, “Biochemical and molecular characterization of the isocitrate dehydrogenase with dual coenzyme specificity from the obligate methylotroph Methylobacillus Flagellatus” (PLoS ONE, 2017).
Values belong to the molecule of their own block, whether it stands above or below them.

Key:
[1] = molecular target: recombinant 6x-His-tagged isocitrate dehydrogenase from Methylobacillus flagellatus (Methylobacillus flagellatus ATCC51484); assay: SEC; HiLoad 10/300 Superdex 200, 0.05 M potassium phosphate buffer pH 7.0, 0.15 M NaCl, 0.01% sodium azide, 0.5 mL/min; calibrated with standards of 29-669 kDa
[2] = molecular target: native isocitrate dehydrogenase from Methylobacillus flagellatus (Methylobacillus flagellatus ATCC51484); assay: native gel or EMSA; gradient non-denaturing PAGE (4-20%, w/v), protein stain and zymogram staining for NAD+- and NADP+-dependent activity; band compared with protein markers
MfIDH = molecular target: T1, MfIDH (Methylobacillus flagellatus, UniProt Q1GZD1); assay: NAD(P)H formation at […] nm; assay type: biochemical; conditions: read-out: % inhibition at 2 mM
T1 construct: gene Mfla_2139; native enzyme purified from M. flagellatus cells, untagged; 413 residues; homodimer (recombinant N-terminal 6xHis form said to be essentially the same)
T1 sequence (Q1GZD1 1-413): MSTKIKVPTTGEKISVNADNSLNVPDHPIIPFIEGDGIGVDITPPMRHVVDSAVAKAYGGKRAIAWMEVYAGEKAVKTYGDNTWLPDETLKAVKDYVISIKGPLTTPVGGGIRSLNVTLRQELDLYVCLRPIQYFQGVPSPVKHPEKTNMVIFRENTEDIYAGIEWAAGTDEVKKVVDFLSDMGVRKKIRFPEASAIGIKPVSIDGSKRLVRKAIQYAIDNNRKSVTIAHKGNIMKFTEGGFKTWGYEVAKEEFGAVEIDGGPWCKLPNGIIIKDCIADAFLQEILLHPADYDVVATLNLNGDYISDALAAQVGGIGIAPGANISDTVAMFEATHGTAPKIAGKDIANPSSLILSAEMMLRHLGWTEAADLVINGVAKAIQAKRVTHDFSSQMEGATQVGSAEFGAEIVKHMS

purified protein [3] = substrate: NC(=O)c1ccc[n+]([C@@H]2O[C@H](COP(=O)(O)OP(=O)(O)OC[C@H]3O[C@@H](n4cnc5c(N)ncnc54)[C@H](OP(=O)(O)O)[C@@H]3O)[C@@H](O)[C@H]2O)c1; assay: purified protein; assay type: biochemical, Methylobacillus flagellatus; conditions: saturating DL-isocitrate, Mn2+, 100 mM Bis-Tris-HCl pH 6.0, 42°C, apparent, pH 6.0
purified protein [4] = substrate: NC(=O)c1ccc[n+]([C@@H]2O[C@H](COP(=O)(O)OP(=O)(O)OC[C@H]3O[C@@H](n4cnc5c(N)ncnc54)[C@H](O)[C@@H]3O)[C@@H](O)[C@H]2O)c1; assay: purified protein; assay type: biochemical, Methylobacillus flagellatus; conditions: saturating DL-isocitrate, Mn2+, 100 mM Tris-HCl pH 8.5, 42°C, apparent, pH 8.5
purified protein [5] = substrate: O=C(O)CC(C(=O)O)C(O)C(=O)O; assay: purified protein; assay type: biochemical, Methylobacillus flagellatus; conditions: cosubstrate NAD+ (saturating), Mn2+, 100 mM Tris-HCl pH 8.5, 42°C, pH 8.5

- stoichiometry N [1]: 2
Molecule: recombinant 6x-His-tagged isocitrate dehydrogenase from Methylobacillus flagellatus (enzyme)

- stoichiometry N [2]: 2
Molecule: native isocitrate dehydrogenase from Methylobacillus flagellatus (enzyme)

- inhibition at 2000 µM (MfIDH): 50%
Molecule: Nc1ncnc2c1ncn2[C@@H]1O[C@H](COP(=O)(O)OP(=O)(O)OP(=O)(O)O)[C@@H](O)[C@H]1O [ATP]

B1: MfIDH (Methylobacillus flagellatus KT) (protein)
chain: MSTKIKVPTTGEKISVNADNSLNVPDHPIIPFIEGDGIGVDITPPMRHVVDSAVAKAYGGKRAIAWMEVYAGEKAVKTYGDNTWLPDETLKAVKDYVISIKGPLTTPVGGGIRSLNVTLRQELDLYVCLRPIQYFQGVPSPVKHPEKTNMVIFRENTEDIYAGIEWAAGTDEVKKVVDFLSDMGVRKKIRFPEASAIGIKPVSIDGSKRLVRKAIQYAIDNNRKSVTIAHKGNIMKFTEGGFKTWGYEVAKEEFGAVEIDGGPWCKLPNGIIIKDCIADAFLQEILLHPADYDVVATLNLNGDYISDALAAQVGGIGIAPGANISDTVAMFEATHGTAPKIAGKDIANPSSLILSAEMMLRHLGWTEAADLVINGVAKAIQAKRVTHDFSSQMEGATQVGSAEFGAEIVKHMS
notes: native enzyme purified from M. flagellatus cells, untagged; 413 residues; homodimer (recombinant N-terminal 6xHis form said to be essentially the same)
- Km (purified protein [3]): 184 µM
- kcat (purified protein [3]): 56 s⁻¹
- kcat/Km (purified protein [3]): 300000 M⁻¹ s⁻¹
- Km (purified protein [4]): 113 µM
- kcat (purified protein [4]): 166 s⁻¹
- kcat/Km (purified protein [4]): 1.5e+06 M⁻¹ s⁻¹
- Km (purified protein [5]): 9.0 µM
